In patent US20220267436A1:

Experiments:
human CD47 (human) [1] = molecular target: human CD47 (human) (UniProt Q08722); assay: flow cytometry, CHO-K1 cells expressing human CD47; FIG. 3
human CD47 (human) [2] = molecular target: human CD47 (human) (UniProt Q08722); assay: flow cytometry, CHO-K1 cells expressing human CD47; FIG. 4
human LAG-3 (human) [3] = molecular target: human LAG-3 (human) (UniProt P18627); assay: flow cytometry, CHO-K1 cells expressing human LAG-3; FIG. 1
human LAG-3 (human) [4] = molecular target: human LAG-3 (human) (UniProt P18627); assay: flow cytometry, CHO-K1 cells expressing human LAG-3; FIG. 2

Chain of human LAG-3 (human) (P18627 23-525): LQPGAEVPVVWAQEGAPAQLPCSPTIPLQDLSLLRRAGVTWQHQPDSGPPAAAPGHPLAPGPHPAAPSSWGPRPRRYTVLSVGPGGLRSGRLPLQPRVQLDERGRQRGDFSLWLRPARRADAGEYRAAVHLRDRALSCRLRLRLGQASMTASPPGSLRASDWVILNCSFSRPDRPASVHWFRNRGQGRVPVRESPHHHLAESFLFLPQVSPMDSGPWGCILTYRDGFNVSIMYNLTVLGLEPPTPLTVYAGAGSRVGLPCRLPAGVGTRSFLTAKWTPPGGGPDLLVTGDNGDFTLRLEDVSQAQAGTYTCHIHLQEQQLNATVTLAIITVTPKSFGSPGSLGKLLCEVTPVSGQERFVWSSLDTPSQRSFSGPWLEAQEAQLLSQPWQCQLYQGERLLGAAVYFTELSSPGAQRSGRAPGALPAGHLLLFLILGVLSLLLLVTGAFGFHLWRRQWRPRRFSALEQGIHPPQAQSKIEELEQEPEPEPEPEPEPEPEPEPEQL
Chain of human CD47 (human) (Q08722 19-323): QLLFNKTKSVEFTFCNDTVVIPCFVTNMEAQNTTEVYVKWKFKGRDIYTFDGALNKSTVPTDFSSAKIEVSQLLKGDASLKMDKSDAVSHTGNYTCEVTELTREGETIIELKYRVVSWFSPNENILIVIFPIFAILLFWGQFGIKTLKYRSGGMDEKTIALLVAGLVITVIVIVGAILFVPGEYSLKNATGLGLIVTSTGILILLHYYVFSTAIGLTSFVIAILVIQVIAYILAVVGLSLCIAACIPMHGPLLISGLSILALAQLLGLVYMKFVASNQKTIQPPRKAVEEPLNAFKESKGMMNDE

EC50 (human CD47 (human) [1]): 14.4 nM | EC50 (human CD47 (human) [2]): 14.4 nM | EC50 (human LAG-3 (human) [3]): 2.46 nM | EC50 (human LAG-3 (human) [4]): 2.46 nM
Substance: Human IgG
